Measured values as given in article PMC10511449, “Custom tuning of Rieske oxygenase reactivity” (Nature Communications, 2023).

Columns and labels:
[1] = target: T1, phthalate dioxygenase (PDO) (Comamonas testosteroni, UniProt B7WQT1); test: LC-MS product detection; assay type: biochemical; settings: VanB reductase, 2 mM substrate, 500 µM NADH, 100 µM ferrous ammonium sulfate, 30 °C
T1 construct: gene CtesDRAFT_PD2022; codon-optimized, MBP tag removed with TEV protease, pMCSG9, E. coli C41(DE3); authors use structure PDB 7V25 (earlier work) for PDO residues
T1 sequence (B7WQT1 1-439): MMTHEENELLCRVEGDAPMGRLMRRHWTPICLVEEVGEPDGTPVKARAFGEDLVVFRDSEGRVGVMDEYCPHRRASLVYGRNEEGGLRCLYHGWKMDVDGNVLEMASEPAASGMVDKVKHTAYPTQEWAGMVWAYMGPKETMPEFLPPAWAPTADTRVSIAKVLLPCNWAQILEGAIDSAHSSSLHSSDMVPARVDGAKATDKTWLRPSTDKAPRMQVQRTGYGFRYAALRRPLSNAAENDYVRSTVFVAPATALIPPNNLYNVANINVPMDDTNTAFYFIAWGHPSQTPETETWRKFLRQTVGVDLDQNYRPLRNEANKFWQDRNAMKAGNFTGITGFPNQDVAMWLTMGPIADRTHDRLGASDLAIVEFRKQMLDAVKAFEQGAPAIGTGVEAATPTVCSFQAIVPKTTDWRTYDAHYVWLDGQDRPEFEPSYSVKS

[2] = substrate: O=C(O)c1ccccc1; test: LC-MS product formation, Michaelis-Menten; assay type: biochemical, Comamonas testosteroni; settings: apparent; VanB reductase (4:1), 500 µM NADH, O2, 100 µM ferrous ammonium sulfate
Excerpt: (§1) LC-MS product formation, Michaelis-Menten on TsaM (p-toluenesulfonate methyl-monooxygenase)

[3] = substrate: O=S(=O)(O)c1ccc(O)cc1; test: LC-MS product formation, Michaelis-Menten; assay type: biochemical, Comamonas testosteroni; settings: apparent; VanB reductase (4:1), 500 µM NADH, O2, 100 µM ferrous ammonium sulfate
Excerpt: as §1

[4] = substrate: Cc1cccc(C(=O)O)c1; test: LC-MS product formation, Michaelis-Menten; assay type: biochemical, Comamonas testosteroni; settings: apparent; VanB reductase (4:1), 500 µM NADH, O2, 100 µM ferrous ammonium sulfate
Excerpt: as §1

[5] = substrate: O=S(=O)(O)c1ccccc1; test: LC-MS product formation, Michaelis-Menten; assay type: biochemical, Comamonas testosteroni; settings: apparent; VanB reductase (4:1), 500 µM NADH, O2, 100 µM ferrous ammonium sulfate
Excerpt: as §1

[6] = substrate: Cc1ccc(N)cc1; test: LC-MS product formation, Michaelis-Menten; assay type: biochemical, Comamonas testosteroni; settings: apparent; VanB reductase (4:1), 500 µM NADH, O2, 100 µM ferrous ammonium sulfate
Excerpt: as §1

[7] = substrate: CSc1ccc(C(=O)O)cc1; test: LC-MS product formation, Michaelis-Menten; assay type: biochemical, Comamonas testosteroni; settings: apparent; VanB reductase (4:1), 500 µM NADH, O2, 100 µM ferrous ammonium sulfate
Excerpt: as §1

[8] = substrate: Cc1ccc([N+](=O)[O-])cc1; test: LC-MS product formation, Michaelis-Menten; assay type: biochemical, Comamonas testosteroni; settings: apparent; VanB reductase (4:1), 500 µM NADH, O2, 100 µM ferrous ammonium sulfate
Excerpt: as §1

[9] = substrate: CCc1ccc(C(=O)O)cc1; test: LC-MS product formation, Michaelis-Menten; assay type: biochemical, Comamonas testosteroni; settings: apparent; VanB reductase (4:1), 500 µM NADH, O2, 100 µM ferrous ammonium sulfate
Excerpt: as §1

[10] = substrate: CNc1ccc(C(=O)O)cc1; test: LC-MS product formation, Michaelis-Menten; assay type: biochemical, Comamonas testosteroni; settings: apparent; VanB reductase (4:1), 500 µM NADH, O2, 100 µM ferrous ammonium sulfate
Excerpt: as §1

[11] = substrate: CC(C)c1ccc(C(=O)O)cc1; test: LC-MS product formation, Michaelis-Menten; assay type: biochemical, Comamonas testosteroni; settings: apparent; VanB reductase (4:1), 500 µM NADH, O2, 100 µM ferrous ammonium sulfate
Excerpt: as §1

[12] = substrate: Cc1ccc(S(=O)(=O)O)cc1; test: LC-MS product formation, Michaelis-Menten; assay type: biochemical, Comamonas testosteroni; settings: apparent; VanB reductase (4:1), 500 µM NADH, O2, 100 µM ferrous ammonium sulfate
Excerpt: as §1

[13] = substrate: COc1ccc(C(=O)O)cc1; test: LC-MS product formation, Michaelis-Menten; assay type: biochemical, Comamonas testosteroni; settings: apparent; VanB reductase (4:1), 500 µM NADH, O2, 100 µM ferrous ammonium sulfate
Excerpt: as §1

purified protein [14] = substrate: O=C(O)c1ccc(O)cc1; test: purified protein; settings: apparent; VanB reductase (4:1), 500 µM NADH, O2, 100 µM ferrous ammonium sulfate
purified protein [15] = substrate: Cc1ccc(C(=O)O)cc1; test: purified protein; settings: apparent; VanB reductase (4:1), 500 µM NADH, O2, 100 µM ferrous ammonium sulfate

In the case of `O=C(O)c1ccccc1` [compound 38, benzoate], the LC-MS product detection [1] is reported as “PDO-VanB system catalyzes a dioxygenation reaction to transform benzoate”.

B1: TsaM (p-toluenesulfonate methyl-monooxygenase) (Comamonas testosteroni) (protein)
chain: MFIRNCWYVAAWDTEIPAEGLFHRTLLNEPVLLYRDTQGRVVALENRCCHRSAPLHIGRQEGDCVRCLYHGLKFNPSGACVEIPGQEQIPPKTCIKSYPVVERNRLVWIWMGDPARANPDDIVDYFWHDSPEWRMKPGYIHYQANYKLIVDNLLDFTHLAWVHPTTLGTDSAASLKPVIERDTTGTGKLTITRWYLNDDMSNLHKGVAKFEGKADRWQIYQWSPPALLRMDTGSAPTGTGAPEGRRVPEAVQFRHTSIQTPETETTSHYWFCQARNFDLDDEALTEKIYQGVVVAFEEDRTMIEAHEKILSQVPDRPMVPIAADAGLNQGRWLLDRLLKAENGGTAP
notes: codon-optimized, N-terminal His-tag with TEV site, E. coli C41(DE3), trimer ~120 kDa; assayed with VanB as non-native reductase
Molecule B1 has a Km [2] of 80 ± 1.5 µM, a Vmax [2] of 1 µM/min and a kcat [2] of 0.00867 ± 0.00217 s⁻¹. The kcat/Km [2] was 99 ± 20 M⁻¹ s⁻¹, the Km [3] was 80 ± 2.8 µM and the Vmax [3] was 1.3 µM/min. For the same molecule, the kcat [3] was 0.011 ± 0.00167 s⁻¹, the kcat/Km [3] was 130 ± 22 M⁻¹ s⁻¹ and the Km [4] was 100 ± 4.2 µM. It also gave a Vmax [4] of 3.1 µM/min, a kcat [4] of 0.0267 ± 0.00617 s⁻¹ and a kcat/Km [4] of 260 ± 50 M⁻¹ s⁻¹. For the same molecule, the Km [5] was 76 ± 3.6 µM, the Vmax [5] was 1.1 µM/min and the kcat [5] was 0.00967 ± 0.00333 s⁻¹. The kcat/Km [5] was 120 ± 47 M⁻¹ s⁻¹, the Km [6] was 110 ± 7.7 µM and the Vmax [6] was 3.2 µM/min. For the same molecule, the kcat [6] was 0.0267 ± 0.00233 s⁻¹, the kcat/Km [6] was 230 ± 21 M⁻¹ s⁻¹ and the Km [7] was 240 ± 2.5 µM. For the same molecule, the Vmax [7] was 2.6 µM/min, the kcat [7] was 0.0217 ± 0.00267 s⁻¹ and the kcat/Km [7] was 88 ± 14 M⁻¹ s⁻¹. The Km [8] was 230 ± 12 µM, the Vmax [8] was 2.9 µM/min and the kcat [8] was 0.0233 ± 0.00417 s⁻¹. For the same molecule, the kcat/Km [8] was 100 ± 16 M⁻¹ s⁻¹, the Km [9] was 65 ± 3.8 µM and the Vmax [9] was 7.3 µM/min. It also gave a kcat [9] of 0.06 ± 0.00567 s⁻¹, a kcat/Km [9] of 930 ± 95 M⁻¹ s⁻¹ and a Km [10] of 240 ± 11 µM. The Vmax [10] was 3.2 µM/min, the kcat [10] was 0.0267 ± 0.00217 s⁻¹ and the kcat/Km [10] was 110 ± 8.8 M⁻¹ s⁻¹. For the same molecule, the Km [11] was 150 ± 6.5 µM, the Vmax [11] was 4.1 µM/min and the kcat [11] was 0.035 ± 0.00433 s⁻¹. It also gave a kcat/Km [11] of 230 ± 24 M⁻¹ s⁻¹, a Km [12] of 3.8 ± 0.60 µM and a Vmax [12] of 6.2 µM/min. It also gave a kcat [12] of 0.05 ± 0.00367 s⁻¹, a kcat/Km [12] of 13000 ± 2200 M⁻¹ s⁻¹ and a Km [13] of 180 ± 8.9 µM. It also gave a Vmax [13] of 3.3 µM/min, a kcat [13] of 0.0267 ± 0.00417 s⁻¹ and a kcat/Km [13] of 150 ± 20 M⁻¹ s⁻¹. The Km (purified protein [14]) was 86 ± 2.1 µM, the Vmax (purified protein [14]) was 1 µM/min and the kcat (purified protein [14]) was 0.00833 s⁻¹. For the same molecule, the kcat/Km (purified protein [14]) was 98 M⁻¹ s⁻¹, the Km (purified protein [15]) was 13 ± 1.3 µM and the Vmax (purified protein [15]) was 11 µM/min. For the same molecule, the kcat (purified protein [15]) was 0.0933 s⁻¹ and the kcat/Km (purified protein [15]) was 7200 M⁻¹ s⁻¹.
